Source: the supplement of paper PMC10126150
± gives the standard deviation of the averaged measurements.
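Note: ATP exposure 15 min at 22 °C before imaging.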

The sequences below were run on ATP (assay: switch fluorescence ratio, 500 uM ATP over buffer (Cy3 cluster intensity, sum of 5 cycles each) (fold (ratio)); higher = stronger signal-on switching upon ATP binding; sequences stand for … in TCGTCGGCAGCGTCAGATGTGTATAAGAGACAGTTTTTTTTTTTTTTTTTTTTTTTTT…TC). Settings: aptamer strand: ATP DNA aptamer (quencher-CACCTGGGGGAGTATTGCGGAGGAAGG + anchor), 100 nM annealed; ATP concentration: 500 uM.
In short: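 The quencher-labelled ATP aptamer, at 100 nM, was annealed to Cy3-labelled switching-strand clusters on a modified Illumina MiSeq flow-cell. The clusters were imaged in selection buffer, then after 15 min with 500 uM ATP at 22 °C, and this buffer/ATP cycle ran five times with NaOH stripping and re-annealing between runs. Per-cluster fluorescence ratios, summed target-cycle over summed buffer-cycle Cy3 intensity, were averaged per switch-domain sequence. Clusters outside 100-1000 RFU were excluded.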
ACTCTGCCGG gave a switch fluorescence ratio of 1.2 ± 0.048.
For ACTCTGTGC, the switch fluorescence ratio was 1.21 ± 0.032.
ACTCTTGCTT gave a switch fluorescence ratio of 1.072 ± 0.0046.
ACTGAAGTTA was tested, and the switch fluorescence ratio was 0.98 ± 0.018.
ACTGACCCCC gave a switch fluorescence ratio of 1.58 ± 0.14.
Sequence ACTGAGACGA has a switch fluorescence ratio of 1.07 ± 0.044.
For ACTGAGGATA, the switch fluorescence ratio was 1 ± 0.037.
For ACTGAGGCTA, the switch fluorescence ratio was 1.07 ± 0.011.
ACTGATCTGA was tested, and the switch fluorescence ratio was 0.987 ± 0.04.
With ACTGCCTTCA the switch fluorescence ratio was 1.52 ± 0.12.
ACTGCGGGAC showed a switch fluorescence ratio of 1.51 ± 0.69.
In the case of ACTGCGTGAT, the switch fluorescence ratio is reported as 1.05 ± 0.022.
For ACTGCTGAAT, the switch fluorescence ratio was 0.99 ± 0.045.
Work on ACTGCTGTTT yielded a switch fluorescence ratio of 0.9834 ± 0.0026.
In the case of ACTGGAAGTG, the switch fluorescence ratio is reported as 1.03 ± 0.0039.
ACTGGACTGT was tested, and the switch fluorescence ratio was 1.18 ± 0.026.
For ACTGGAGGTG, the switch fluorescence ratio was 1.067 ± 0.0038.
ACTGGATCCA gave a switch fluorescence ratio of 1.01 ± 0.013.
Sequence ACTGGGCTGT has a switch fluorescence ratio of 1.06 ± 0.062.
With ACTGGGGGCG the switch fluorescence ratio was 1.03 ± 0.053.
Sequence ACTGGGGTCT has a switch fluorescence ratio of 1.01 ± 0.026.
Sequence ACTGGGGTGT has a switch fluorescence ratio of 1.07 ± 0.0045.
In the case of ACTGGGTAGA, the switch fluorescence ratio is reported as 1.0278 ± 0.00073.
ACTGGGTGAG showed a switch fluorescence ratio of 1.02 ± 0.023.
In the case of ACTGGGTTTT, the switch fluorescence ratio is reported as 1.022 ± 0.0022.
With ACTGGTATAA the switch fluorescence ratio was 0.989 ± 0.015.
Sequence ACTGGTGGTG has a switch fluorescence ratio of 0.97817 ± 0.0005.
ACTGGTGTTC showed a switch fluorescence ratio of 1.019 ± 0.0094.
For ACTGTAATCC, the switch fluorescence ratio was 1.16 ± 0.046.
For ACTGTACACC, the switch fluorescence ratio was 1.46 ± 0.026.
ACTGTACCGG gave a switch fluorescence ratio of 1.45 ± 0.04.
For ACTGTGGACA, the switch fluorescence ratio was 1.02 ± 0.016.
Work on ACTGTGTACA yielded a switch fluorescence ratio of 0.9824 ± 0.0024.
With ACTGTGTTTG the switch fluorescence ratio was 0.991 ± 0.036.
Work on ACTGTTCTCG yielded a switch fluorescence ratio of 1.01 ± 0.046.
With ACTGTTTTGA the switch fluorescence ratio was 0.962 ± 0.01.
Sequence ACTGTTTTTA has a switch fluorescence ratio of 0.9849 ± 0.004.
With ACTTAAGTTT the switch fluorescence ratio was 1.01 ± 0.07.
Work on ACTTAATGGG yielded a switch fluorescence ratio of 1.034 ± 0.0014.
Work on ACTTACAGGG yielded a switch fluorescence ratio of 1.171 ± 0.0058.
Work on ACTTACTATC yielded a switch fluorescence ratio of 1.193 ± 0.0046.
ACTTACTTT showed a switch fluorescence ratio of 1.16 ± 0.021.
Work on ACTTAGCGGT yielded a switch fluorescence ratio of 1.07 ± 0.051.
Sequence ACTTAGGAGA has a switch fluorescence ratio of 1.01 ± 0.048.
For ACTTAGGTTG, the switch fluorescence ratio was 1.04 ± 0.017.
In the case of ACTTATATA, the switch fluorescence ratio is reported as 1.02 ± 0.022.
Work on ACTTCAGCGG yielded a switch fluorescence ratio of 1.07 ± 0.015.
For ACTTCATTTT, the switch fluorescence ratio was 1.02 ± 0.012.
With ACTTGAGGGT the switch fluorescence ratio was 1.05 ± 0.094.
For ACTTGATCGC, the switch fluorescence ratio was 1.03 ± 0.03.
In the case of ACTTGGACAT, the switch fluorescence ratio is reported as 1.04 ± 0.018.
In the case of ACTTGGACGT, the switch fluorescence ratio is reported as 1.05 ± 0.048.
ACTTGGCACA gave a switch fluorescence ratio of 1.08 ± 0.054.
ACTTGGGATG showed a switch fluorescence ratio of 0.982 ± 0.037.
ACTTGGTACT was tested, and the switch fluorescence ratio was 1.02 ± 0.018.
ACTTGGTTGT was tested, and the switch fluorescence ratio was 0.992 ± 0.013.
Work on ACTTGTTTCG yielded a switch fluorescence ratio of 0.961 ± 0.037.
Sequence ACTTGTTTGG has a switch fluorescence ratio of 1.01 ± 0.023.
ACTTTAGGGT showed a switch fluorescence ratio of 1.15 ± 0.12.
Sequence ACTTTAGTTA has a switch fluorescence ratio of 0.9756 ± 0.0025.
Work on ACTTTATTCT yielded a switch fluorescence ratio of 1.04 ± 0.02.
In the case of ACTTTCTAGC, the switch fluorescence ratio is reported as 1.07 ± 0.029.
Sequence ACTTTGGGCG has a switch fluorescence ratio of 0.932 ± 0.059.
ACTTTGGTTT was tested, and the switch fluorescence ratio was 0.993 ± 0.031.
Work on ACTTTGTACG yielded a switch fluorescence ratio of 1.06 ± 0.011.
ACTTTGTATT showed a switch fluorescence ratio of 0.999 ± 0.013.
ACTTTTTCGG showed a switch fluorescence ratio of 0.9909 ± 0.006.
For ACTTTTTGAG, the switch fluorescence ratio was 0.996 ± 0.032.
In the case of ACTTTTTTGA, the switch fluorescence ratio is reported as 1.005 ± 0.0056.
ACTTTTTTTA gave a switch fluorescence ratio of 1.022 ± 0.01.
Work on AGAAAAAATT yielded a switch fluorescence ratio of 1 ± 0.017.
For AGAAAAAGGA, the switch fluorescence ratio was 1.01 ± 0.044.
Sequence AGAAAAGGGC has a switch fluorescence ratio of 1.026 ± 0.0014.
AGAAAATAGT showed a switch fluorescence ratio of 1.03 ± 0.032.
AGAAAGCCGG gave a switch fluorescence ratio of 0.989 ± 0.014.
Work on AGAAAGGATG yielded a switch fluorescence ratio of 1.01 ± 0.032.
AGAAAGGGGG showed a switch fluorescence ratio of 0.9954 ± 0.0038.
Work on AGAAAGTTTT yielded a switch fluorescence ratio of 0.993 ± 0.025.
With AGAAATGGGA the switch fluorescence ratio was 0.987 ± 0.012.
With AGAAATGTTA the switch fluorescence ratio was 1.024 ± 0.0063.
With AGAAATTTTT the switch fluorescence ratio was 0.998 ± 0.016.
With AGAACCATCG the switch fluorescence ratio was 1.05 ± 0.016.
With AGAACCTAGT the switch fluorescence ratio was 0.996 ± 0.031.
For AGAACCTCTT, the switch fluorescence ratio was 1.06 ± 0.033.
For AGAACGAAGG, the switch fluorescence ratio was 0.962 ± 0.015.
AGAACGGGGC was tested, and the switch fluorescence ratio was 1.02 ± 0.023.
AGAACTAGGG was tested, and the switch fluorescence ratio was 0.974 ± 0.016.
AGAAGAAATC was tested, and the switch fluorescence ratio was 1.016 ± 0.008.
With AGAAGAGGGG the switch fluorescence ratio was 0.987 ± 0.044.
AGAAGCAGG gave a switch fluorescence ratio of 1.21 ± 0.26.
In the case of AGAAGCGACA, the switch fluorescence ratio is reported as 0.994 ± 0.032.
Sequence AGAAGCTAGT has a switch fluorescence ratio of 0.983 ± 0.044.
With AGAAGGCTGC the switch fluorescence ratio was 0.978 ± 0.0071.
Sequence AGAAGGGACG has a switch fluorescence ratio of 0.973 ± 0.021.
In the case of AGAAGGGATT, the switch fluorescence ratio is reported as 1.03 ± 0.015.
AGAAGTACGC showed a switch fluorescence ratio of 1.17 ± 0.1.
For AGAAGTCGTG, the switch fluorescence ratio was 1.02 ± 0.012.
Work on AGAAGTGAGC yielded a switch fluorescence ratio of 0.978 ± 0.038.
For AGAAGTTGGA, the switch fluorescence ratio was 1 ± 0.05.
AGAAGTTGGT showed a switch fluorescence ratio of 1 ± 0.023.
AGAAGTTTGG gave a switch fluorescence ratio of 0.989 ± 0.012.
For AGAATAATAG, the switch fluorescence ratio was 1.02 ± 0.026.
AGAATACGGA was tested, and the switch fluorescence ratio was 1.05 ± 0.018.
For AGAATAGAGT, the switch fluorescence ratio was 0.97 ± 0.038.
With AGAATAGGGG the switch fluorescence ratio was 0.9762 ± 0.0083.
For AGAATAGGGT, the switch fluorescence ratio was 0.9901 ± 0.0072.
AGAATAGTGG showed a switch fluorescence ratio of 0.96 ± 0.037.
AGAATCAGCA showed a switch fluorescence ratio of 1.01 ± 0.019.
For AGAATCCTG, the switch fluorescence ratio was 0.995 ± 0.043.
Sequence AGAATGAGGT has a switch fluorescence ratio of 0.98 ± 0.03.
AGAATGGCAG showed a switch fluorescence ratio of 0.991 ± 0.029.
For AGAATGTAAT, the switch fluorescence ratio was 0.9591 ± 0.0014.
AGAATGTATG showed a switch fluorescence ratio of 0.994 ± 0.021.
Sequence AGAATGTTGC has a switch fluorescence ratio of 0.9482 ± 0.0035.
With AGAATTGAGA the switch fluorescence ratio was 0.971 ± 0.019.
Sequence AGAATTTTTG has a switch fluorescence ratio of 0.963 ± 0.075.
AGACAACGGC gave a switch fluorescence ratio of 1.02 ± 0.03.
AGACAAGTGG gave a switch fluorescence ratio of 0.957 ± 0.026.
AGACACCCCT showed a switch fluorescence ratio of 1.17 ± 0.073.
AGACAGGAGA gave a switch fluorescence ratio of 0.985 ± 0.019.
With AGACAGTTGG the switch fluorescence ratio was 0.99 ± 0.025.
AGACATGGGT showed a switch fluorescence ratio of 1.02 ± 0.033.
With AGACCGCTTA the switch fluorescence ratio was 1.15 ± 0.036.
AGACGGAATT showed a switch fluorescence ratio of 1.049 ± 0.0063.
AGACGGGGCT showed a switch fluorescence ratio of 0.975 ± 0.017.
With AGACGGTCGG the switch fluorescence ratio was 0.975 ± 0.016.
With AGACGGTCTG the switch fluorescence ratio was 0.973 ± 0.0098.
For AGACGTGCAG, the switch fluorescence ratio was 1.022 ± 0.006.
Work on AGACGTGCGT yielded a switch fluorescence ratio of 1.01 ± 0.048.
AGACTCGGGT was tested, and the switch fluorescence ratio was 1.02 ± 0.0013.
AGACTGAGTT showed a switch fluorescence ratio of 0.984 ± 0.016.
Work on AGACTGCTGG yielded a switch fluorescence ratio of 0.977 ± 0.018.
AGACTGGAGC showed a switch fluorescence ratio of 1.06 ± 0.026.
AGACTGTCGA gave a switch fluorescence ratio of 1 ± 0.012.
AGAGAAAGTA gave a switch fluorescence ratio of 0.98799 ± 0.0004.
For AGAGAAGACC, the switch fluorescence ratio was 1 ± 0.028.
With AGAGACAGGG the switch fluorescence ratio was 1.05 ± 0.032.
With AGAGACCAGC the switch fluorescence ratio was 1.07 ± 0.028.
Sequence AGAGACCTCA has a switch fluorescence ratio of 1.045 ± 0.0027.
With AGAGACGGGG the switch fluorescence ratio was 1.02 ± 0.013.
Sequence AGAGAGACAG has a switch fluorescence ratio of 0.97 ± 0.057.
In the case of AGAGAGGGTT, the switch fluorescence ratio is reported as 0.986 ± 0.019.
AGAGATATTT was tested, and the switch fluorescence ratio was 0.992 ± 0.029.
AGAGATGTTG gave a switch fluorescence ratio of 0.993 ± 0.045.
Sequence AGAGCAAGGT has a switch fluorescence ratio of 1.08 ± 0.035.
AGAGCCTGGG showed a switch fluorescence ratio of 1.04 ± 0.02.
Work on AGAGCGGTTC yielded a switch fluorescence ratio of 1.06 ± 0.11.
AGAGCGTTCG was tested, and the switch fluorescence ratio was 0.998 ± 0.042.
In the case of AGAGCTGGGG, the switch fluorescence ratio is reported as 0.9849 ± 0.0079.
Work on AGAGGAGGGT yielded a switch fluorescence ratio of 1.01 ± 0.017.
AGAGGGAACA showed a switch fluorescence ratio of 1.01 ± 0.02.
In the case of AGAGGGAGTA, the switch fluorescence ratio is reported as 1 ± 0.022.
AGAGGGATAG gave a switch fluorescence ratio of 1.19 ± 0.37.
